B1: MDPS MKQLADS LHQLARQ VSRLEHA DPS MKQLADS LHQLARQ VSRLEHA DPS MKQLADS LHQLARQ VSRLEHA DPS MKQLADS LHQLARQ VSRLEHA EPS-RKKRKKRKKRKKGGGY (protein)
chain: MDPSMKQLADSLHQLARQVSRLEHADPSMKQLADSLHQLARQVSRLEHADPSMKQLADSLHQLARQVSRLEHADPSMKQLADSLHQLARQVSRLEHAEPSRKKRKKRKKRKKGGGY
notes: recombinant mineralizing biosurfactant protein produced in Escherichia coli

Assays:
[1] = TEM measurement of nanocapsule silica shell thickness and diameter; assay type: physicochemical
Experimental: (§1) The size distribution profile of the nanoemulsions and nanocapsules was determined by dynamic light scattering (DLS, Malvern Zetasizer Nano ZS) and the samples were diluted by a factor of 100 prior to the measurement. The morphology and shell thickness of the nanocapsules were examined by transmission electron microscopy (TEM, JEOL 1010, 100 kV accelerating voltage). Samples (2 μL) were taken directly from the reaction mixtures, deposited onto Formvar-coated copper grids (200 mesh), and left to air-dry prior to examination. Samples were also analyzed for high-resolution (HR) TEM (JEOL 2100, 200 kV accelerating voltage) equipped with an energy dispersive X-ray spectroscopy (EDS) detector. The formation of amorphous silica was verified by selected area electron diffraction (SAED) in HRTEM.
(§2) Each of the dialyzed nanoemulsion compositions from Example 2 at pH 7.5 or 8.0 were divided into a number of separate glass vials. One composition of each peptide nanoemulsion at each pH was retained as a control. To the other compositions, three concentrations of TEOS were added to separate vials, 20 mM, 40 mM and 80 mM, and the compositions were gently stirred for 20 to 50 hours. The compositions were then analyzed by DLS and a size increase consistent with the formation of a thick layer surrounding the oil droplet core in TEOS-containing solutions was observed.
The shell thickness of at least 100 individual nanocapsules were measured by TEM (a dark ring around the perimeter of the bright core). The silica layer formed on SEQ ID NO: 153 and SEQ ID NO: 154 nanoemulsions at pH 7.5 was 22±5 nm and 12±2 nm thick respectively and at pH 8.0, 35±5 nm and 27±6 nm respectively.
SEQ ID NO: 155 was used to facilitate formation and stabilization of nanoemulsions, and subsequently direct nucleation and growth of silica shell encasing the nanoemulsion template. A solution of SEQ ID NO: 155 (115 μM) in HEPES buffer (25 mM, pH 7.5) was mixed with Miglyol® 812 oil (10% v/v) by sonication at 10 W using Branson Sonifier 450 for 4×30 s burst and interspersed with cooling in an ice bath for 60 s. An aliquot of SEQ ID NO: 155 nanoemulsions (400 μL) was transferred to a glass vial and added with TEOS (80 mM). The mixture was then stirred at room temperature for 20 h to form silica shell surrounding the nanoemulsions.

[2] = Dynamic light scattering of nanoemulsions and nanocapsules; assay type: physicochemical; settings: for Number-average diameter (dn) of oil droplets in nanoemulsion / Polydispersity index (PDI) of nanoemulsion: 400 μM peptide, 800 μM ZnCl2, 2% v/v Miglyol 812, HEPES pH 7.0, after sonication; for Increase in number-average diameter of nanoemulsion after dialysis: dialysis 20 hours against HEPES 25 mM, pH 7.5 or 8.0, 10 kDa membrane; for PDI of nanocapsules: 80 mM TEOS, 25 mM HEPES
Experimental: as §1
Separate solutions of SEQ ID NO: 153 (400 μM) and SEQ ID NO: 154 (400 μM) in HEPES buffer (25 mM, pH 7.0) in the presence of ZnCl2 (800 μM) were mixed with Miglyol® 812 (2% v/v) by sonication (Branson Sonifier 450, 10 W, 4×30 s burst and interspersed with cooling in an ice bath for 60 s). After sonication, the compositions were macroscopically identical and homogeneous with cloudy appearance.
The nanoemulsion compositions (1 mL) were dialyzed against HEPES buffer (500 mL, 25 mM, pH 7.5 or 8.0) using a 10 kDa cellulose membrane to adjust pH of each nanoemulsion and to remove residual peptide. After dialysis for 20 hours there was only a slight increase, approximately 5%, in the number-average diameter of nanoemulsions stabilized by either SEQ ID NO: 153 or SEQ ID NO: 154 and the PDIs remained similar. The nanoemulsions were stable to dialysis.
as §2

[3] = Precipitation of silica from TEOS by biosurfactants; settings: 400 μM peptide, 25 mM HEPES pH 7.5 and 8.0, 80 mM TEOS, room temperature
Experimental: To test whether biosurfactants SEQ ID NO: 153 and SEQ ID NO: 154 were able to precipitate silica, separate aqueous solutions of SEQ ID NO: 153 and SEQ ID NO: 154 (400 μM) in HEPES buffer (25 mM) at pH 7.5 and 8.0 were prepared and TEOS (80 mM) was added. A solution of each biosurfactant was retained without TEOS as a control. The mixtures were gently stirred at room temperature. A transparent gel-like precipitate formed within a few minutes in those compositions which had TEOS added whereas the control remained a solution. The precipitate was isolated and extensively washed with water and vacuum dried. The precipitate was analyzed by elemental analysis using EDS in conjunction with scanning electron microscopy (SEM, JEOL 6610). […] Excess oxygen, carbon and sulfur also found in the analysis were consistent with entrapped peptide.

[4] = pH 7.5, at least 100 nanocapsules by TEM
[5] = pH 8.0, at least 100 nanocapsules by TEM
[6] = pH 7.5, 20 hours silicification
[7] = pH 8.0, 20 hours silicification
[8] = 115 μM protein, 10% v/v Miglyol 812, pH 7.5, 80 mM TEOS, 20 h

Row | Molecule | Silica shell thickness ([1]; 30 hours, 20 mM TEOS, 25 mM HEPES pH 7.5) | Silica shell thickness ([1]; 30 hours, 40 mM TEOS, 25 mM HEPES pH 7.5) | Silica shell thickness ([1]; 30 hours, 80 mM TEOS, 25 mM HEPES pH 7.5) | Silica shell thickness [1, 4] | Silica shell thickness [1, 5] | Number-average diameter (dn) of oil droplets in nanoemulsion [2] | Polydispersity index (PDI) of nanoemulsion [2] | Increase in number-average diameter of nanoemulsion after dialysis [2] | PDI of nanocapsules [2, 6] | PDI of nanocapsules [2, 7] | Ability to precipitate/nucleate silica [3] | Outer diameter of nanocapsules [1, 8] | Silica shell thickness [1, 8]
1 | Ac-MKQLAHSVSRLEHA-RKKRKKRKKRKKGGGY-CONH2 (Ac-MKQLAHSVSRLEHARKKRKKRKKRKKGGGY-NH2) [SEQ ID NO: 154, custom synthesized mineralizing biosurfactant peptide, Mw 3632.4] | 5±1 nm | 10±2 nm | 16±3 nm | 12±2 nm | 27±6 nm | ~40 nm | 0.293 | approximately 5% | 0.146 | 0.233 | can nucleate silica |  | 
2 | Ac-MKQLAHSVSRLEHA-SSKKSGSYGGSKGSKRRIL-NH2 (Ac-MKQLAHSVSRLEHASSKKSGSYGGSKGSKRRIL-NH2) [SEQ ID NO: 153, custom synthesized mineralizing biosurfactant peptide, Mw 3643.2] |  |  |  | 22±5 nm | 35±5 nm | ~80 nm | 0.329 | approximately 5% | 0.242 | 0.794 | can nucleate silica |  | 
3 | B1 |  |  |  |  |  |  |  |  |  |  |  | 249±29 nm | 26±2 nm

From patent publication US11266968B2, “Mineralizing biosurfactant used for nucleating silica” (THE UNIVERSITY OF QUEENSLAND, priority 2013, dated 2022)
